Experimental data published in the DeepSol protein solubility set.

Assay: soluble on expression in E. coli; label from the status in PepcDB or PDB records
In the case of “MEIQDYTDSEFKHALARNLRSLTRGKKSSKQPIAILLGGQSGAGKTTIHRIKQKEFQGNIVIIDGDSFRSQHPHYLELQQEYGKDSVEYTKDFAGKMVESLVTKLSSLGYNLLIEGTLRTVDVPKKTAQLLKNKGYEVQLALIATKPELSYLSTLIRYEELYIINPNQARATPKEHHDFIVNHLVDNTRKLEELAIFERIQIYQRDRSCVYDSKENTTSAADVLQELFFGEWSQVEKEMLQVGEKRLNELLEK”, the “soluble on expression in E. coli” value is reported as “soluble”. With “MEIRPTRIELIRTRRRIKLARKGLDLLKMKRSALIYEFLQISRTIRGMRENLRREVEDALNTIRTAEILEGQVALERIANMSSDSTINVDSRNVMGVVIPTLNLTYNLSILSDVYRTISVPVAINDAIDRFQRLFLNLIQILEKENALRNLLIEIDKTKRRSNAIENILIPRLEYQAKMIKMMLDERERDTFTTLKTIKKKIEAGKDEE” the “soluble on expression in E. coli” value was “not soluble”. In the case of “MEIRVANKYALGKKLGSGSFGDIYVAKDIVTMEEFAVKLESTRSKHPQLLYESKLYKILGGGIGVPKVYWYGIEGDFTIMVLDLLGPSLEDLFTLCNRKFSLKTVLMTADQMLNRIEYVHSKNFIHRDIKPDNFLIGRGKKVTLIHIIDFGLAKKYRDSRSHTHIPYKEGKNLTGTARYASINTHLGIEQSRRDDIEALGYVLMYFLRGSLPWQGLKAISKKDKYDKIMEKKISTSVEVLCRNASFEFVTYLNYCRSLRFEDRPDYTYLRRLLKDLFIREGFTYDFLFDWTCVYASEKDKKKMLENKNRFDQTADQEGRVKQN”, the “soluble on expression in E. coli” value is reported as “not soluble”. For “MEIVLTREKMEITATPIRTRYIDRNEDFVSESIHSLKKEIENGFEIKNGDFLVVSEKFIATSEDNFVDESLADPKFWAYFTYYLSKYGWGYVLGPLLGTRGDRVKNLRKMPKTETLKHKQIVIENVGLIYALKPASEGGIDLTNVPGTYASLLPENPEYSAKKLHKKIKEDLDLDLTVMVIDTDATYRFFNWYVTALPIAVEGITSKIGVFGYILGKFGKILNQGGLCGATPLAITGNENYKKYPLKTLLYIANLSDTSQVPYTKSIHDLMKKYNTFEITVDVLKEMEHSPLVIVKCE”, the “soluble on expression in E. coli” value was “not soluble”. For “MEKAIHNLGKDARLHIIHILLQNRSKKELADELGITPAAITKYLKGITHPSDEIIEKCIEIASEDEEYHEIIKVIVSDITEALMELLREIGIEKMIDNEDIQKLKKLLDKAFDKMLSTSPSFV”, the “soluble on expression in E. coli” value was “not soluble”. For “MEKLDGVANTLYVPLYGRIYVSKKFPEYFYDEMALKIEEKFTSGISKGSFEYTNMAYGARYYNMDKMIIKFIEEHKISNIILLGIGLETAYDRITQKCGLGEVNYYGIDLPEVIEIRKKYFGERKQETLIAGDMFEMEWKEQIDTSIPTLLIVSGVFQYFFEDKIIEFIKNLKKEFPYGELVFDTARKKTGLRFANWYIRRTGNLEALMHFYIEDSVDFSKKTDTILVEELTFFKDARELLRKKLNFITKLFMKIADSKRQALIIHLKWLEHHHHHH”, the “soluble on expression in E. coli” value was “not soluble”. With “MEKLINRVGPNGESRAQAVTSDQEKRLLHQLREITRVMKEGKFIDTSPEKEAEEAPYMEDWEGYPEETYPIYDLSDGIKRRQETILVDYPDLKEPSAEEIAEQMGEIEEEGSERLSWDHLPTDPGAQKDNSVAPCDPKPESCSCCVHEEEDPAVLAENAGFSADGYSEQEEATKENLPQDFTNEGLGVSTDNAHVGGMLRKRNPQGFE” the “soluble on expression in E. coli” value was “not soluble”. For “MEKMYNVGKIVNTHGLIGEIRVIATTDFPEERFQVGNTVYLFEKNSKKPEKLIIRSHRKHKNFDLLMFEGFTGIHQVERMKEGVLKIKETQLTNLEENEFYFHEIIGCTVVTTDGEELGEITEILTPGANDVWVVKGADKKEKLIPYIADVVKEINIDDQKITIEVMEGLLD”, the “soluble on expression in E. coli” value was “soluble”. For “MEKNGLFSQRIRLRHLHTFVAVAQQGTLGRAAETLNLSQPALSKTLNELEQLTGTRLFERGRLGAQLTVPGEQFLTHAVKVLDALNTAGQALNRKEDASADVVRVGALPTAALGILPAAIGRFHQQQKSTSLQVATMNNTMLLAGLKSGEIDLGIGRMSDPELMGGLNYELLFLESLKLVVRPGHPLLQETITLSRVMEWPVVVSPKGTVPRQNAEALLQSQGCKMPAGCIETLSASLSRQLTVDYDYVWFVPSGAVKEDLRQATLVSLPVPTQSAGEPIGILTRVDIPLSTGAQMLIAAIRKSMPL”, the “soluble on expression in E. coli” value was “not soluble”. For “MEKQYRVLLYYKYVPIEDPEAFREQHLAFCKELGLLGRILVSSEGINGTVSGTVEQTEKYMETMKADPRFADMVFKIDEAEGHAFKKIFVRHKKELVTLRLEDDVDPNETTGQHLKPAEFYEKMQDPNTIVIDARNDYEYDLGHFRGAVRPDIEAFRELPEWIEEHKDMLEGKKILTYCTGGVRCEKFSGWLVKQGFEDVAQLDGGIVTYGKDPEVQGKLWDGQCYVFDERISVPVNRVEHVIVGKDYFTGEPCERYVNCANPSCNKKMICTPENEYKYMRSCSHECRTNPRNLYVKEHNMTEEEVNARLAAIETEDHAAAE”, the “soluble on expression in E. coli” value was “not soluble”. In the case of “MEKRNIQVTRHFVCADQLQQISETVIACLGQEDLITISGGLGPISDDKTRDAVAKAVRQPLFHHEDVWQTIKGQLGWLGSTPDSNNARQALFPETAKVLDNPTGTAPGFYLSCGESILVILTGSLTQAFALLENYLEHGEKKYSSVSRARYAWILIGIDESAIAHWVDCQLANELFERHFYGKALMFSYNWLASHQRFWLSI”, the “soluble on expression in E. coli” value is reported as “not soluble”. With “MEKSWYVVHTYSGYENKVKANLEKRVESMGMQDKIFRVVVPEEVEVEMKNGKEKLMKRKVFPGYVLVELIMTDDSWYVVRNTPGVTGFVGSSGSGSKPSPLLEEEVVTIMKHMGMDNEVVDFDFELHETVRVNEGPFADYTGAIEEIDVEKKKVSVLVDMFGRETPVELDFHQIEKL” the “soluble on expression in E. coli” value was “soluble”. For “MEKVKKIVLIGASGFVGSALLNEALNRGFEVTAVVRHPEKIKIENEHLKVKKADVSSLDEVCEVCKGADAVISAFNPGWNNPDIYDETIKVYLTIIDGVKKAGVNRFLMVGGAGSLFIAPGLRLMDSGEVPENILPGVKALGEFYLNFLMKEKEIDWVFFSPAADMRPGVRTGRYRLGKDDMIVDIVGNSHISVEDYAAAMIDELEHPKHHQERFTIGYLEHHHHHH”, the “soluble on expression in E. coli” value was “soluble”. With “MEKYEEVLVSIRQIIRAIDLHSKKLSKESGLTAPQLILMRAINELDNVTIKQLSNHTNMSQATATTILDRLERNQLVERRRSVEDKRKVHAVLTEKGEEALRQAPTPLQEHFINRFQKLEEWEQTLLLSSVQRISTMMNAEDIDVAPLLEIGSITKPE” the “soluble on expression in E. coli” value was “not soluble”. For “MELDVFAGQEKSELSMIEVARAILETRGRDKEMYFNDLVNEIQNYLEKSDADIRSSLPFFYSDLNTDGSFIPLGDNKWGLRSWYAIDEIDEEVITLEDIDENAPKRKNKKVNAFMDGDEDAIDYNDDDPEDENFTPSSAILEYDNDNEDDENAEVESYDSELNEIIPDDDLDDVELSEEDDDDDDDYEDETND”, the “soluble on expression in E. coli” value was “not soluble”. With “MELETEIIVDKVDVENPILITSFPGIGLVGTIATAHYIMELKLESIGIVDSRLLPPVASLYEGVILPPVRVYQSADLGFVLIHSDVPIIPQAAIDMSKKIVQFAAEINARRVYSFAGVATFEDKKRVFAAATSKELLEEVKDHAEIFKTGTISGIAGSIMNECVAAKMPGIVLLGETLGFNPDPRAAASLIEAVNKIMNWNVSVEKLLKEAEMIEAQMQKLAEQARMQEERKEEFPMYG” the “soluble on expression in E. coli” value was “soluble”. With “MELKEGDEILNVAGPLGNPAPMEKFGKILAIGAYVGIAEVYPIAKAWQEIGNDVTTLHVTFEPMVILKDYFEKAVSRHIVEPVKIDQEKSFQENTKNVTKALTAKVKELLDNENWDLVFMVGPPGDQKAVFEVVKKYGIPMKVDLHPIMLEHHHHHH” the “soluble on expression in E. coli” value was “not soluble”. In the case of “MELKKFELKTVELPILKPGTLRGKKEFRLLHISDLHMIPGQETKKAWVSALDSLSPDLVINTGDNLSDEKAVPDVLRALGPLMNRPGAFVFGTNDYWAPRPVNPFGYLFGKKREVSHIDLPWRAMRAAFIEHGWQDANQKRLEFQVGSVRLAISGVDDPHHDLDDYTEIAGAPNVDADLSIALLHAPEPRVLAQFEADGYQLSLSGHTHGGQLEHHHHHH”, the “soluble on expression in E. coli” value is reported as “not soluble”. With “MELKLIPIEKPENLNVILGQAHFIKTVEDLHEALVTAVPGIRFGLAFSEASGKRLVRRSGTDEALVELAVKNLLNLACGHVFLIVLGEGFYPINVLHAVKACPEVVRIYAATANPLKVVVAEEGEQRAILGVMDGFTPLGVEDEAEVAWRKDLLRRLGYKL” the “soluble on expression in E. coli” value was “soluble”. In the case of “MELMIGRVVKSHGIRGEVAIEVTTEEPEIRFAQGEVLNGRQGGKEHSLTIASVRPHQNRLLVKFKEIADRTAADSLRGTRFFAAPLDDDVDDGFYDHELEGLAVIHGEEKIGEVSGVIHGPAQSLLEVTLESGKEVLIPFVHDIVPEVDLDAGTCVITPPEGLLEL”, the “soluble on expression in E. coli” value is reported as “not soluble”. For “MELNGKAPSRRQLNIQHWNTAEGARVLFVEARELPMFDLRVTFAAGSSQDGGTPGLAALTNAMLNEGVAGKDVTAIAEGFEGLGADFGNGSYRDMAVASLRSLSAKDKREPALKLFTEVAGKPTFPEDALKRIKNQMLAGFEYEKQNPGKIAGKALFGKLYGDHPYAHPSDGTAESITGISLAQLRAFHAKAYTGGNAVIALVGDLSRAEAEAIAAQVSAGLPKGPALAAPAQPALEHHHHHH”, the “soluble on expression in E. coli” value was “soluble”. For “MELRVAGFLDNSMVNGEGLRSVLFLSGCRRRCPGCQNTDMQDFKYGESVSAEEIFNRIKSNVPIIKGVTFSGGDPLEQAEGLINISKEIKKLGLNIWCYTGYTYEEILKEKDSNKLELLKYIDVLVDGEFKAELTENAPKYAGSSNQRIIRLKLEHHHHHH”, the “soluble on expression in E. coli” value was “not soluble”. With “MELTTKLVGTCSALDRLYQSGSAKCLFPRNSRAGLEAVLLNTAGGVTGGDRLSFSAQVRAGTRLSVTTQACERAYRAQPGETGQVRNHLSVATGARMNWLPQETILYDGSSLDRRLSVEIEPGASLLMVEPLVFGRIEMGESLNDARFCDRIEITRRGRPIFLDATRLQGGIAAHLAKPFIANGAGAMALLVYLAENAEAVLPRLRQMLPECAGASLIGEDLLVMRVLAADSFLLRQSLLPALRLLNNNEIPRCWTILEHHHHHH” the “soluble on expression in E. coli” value was “not soluble”. With “MEMILEEKDASDWIYRGEGGANLVLAYAGSSPLFVGKVIRIQKARRNDKAIKNANGVVSVLTSDEQHLWRENNELISSPNKEVLEQRYVKNVIIPLLGPKHVDAGVRVSVSKEFLECVDKKVTKQRPLWRVNAANVDTSHDSALILNDHSLFSQGISSGGDCISVEIKPKCGFLPTSRFIGKENMLKTSVSRFKMHQLLKLEYNEISAASAYDPLDLFSGSKESVLEAIKALYSTPQNNFRVFLNGSLILGGSGESTGRTSPEIGYAFEDALKGFIQSEDGHRTECFLQLVSDAVYGSGVLDRLLEIQKLDKLDIEGAIHSYYDLINQPCPICKEGKPLEAELSLHALPLDESLKIVKEYLIAATAKDCSIMISFQSRNAWDSEPSGDYVSLKPTNQTFDYKVHFIDLSLKPLKRMESYYKLDKKIISFYNRKQKAENTAEQIGNSKPSHS” the “soluble on expression in E. coli” value was “soluble”. In the case of “MEMSSNNKPVAGAEIKVAGASPTDSDQEGRFILNFTASLPGDPLMINDIYKKGFKIVNYEKVANWNISSASELKIVLGRTEVINALRKKYYDIGESNSEKEYRKTLAELEELKKQNALSAVEYDQKVDSMSKSMMEWQKRLEIYALKFACINRDELDAMEKQAMELLDHGDVHGAIRLYEEMKLDSTMTLKIAVRQEAKEDMKLLLPSLVNNFQLLKQADDKVACDSVAHLIYEMAADIKLKLMSVEWFFQRNDPSEVLDQYSLIVKDTQSMQEIELVENSLQQSLKEVKLKGELKKKAQLVFERIEDRKKWISIKEKI”, the “soluble on expression in E. coli” value is reported as “not soluble”. For “MENKMESIEQQVEVLLEQEPQLLPAAMAERLGVTEFDVVAALPQEMVAISPGEQAQTILESLVGFGPVTTIVHSFGSIFEVKAPFPKGKVARGYYNLMGREGELHGHLKLDNVKNIALVSKPFMGRESHYFGFFSECGSNIFKVYLGRDEKRELIAEQVTAFRAMQAELNQLEHHHHHH”, the “soluble on expression in E. coli” value was “not soluble”.
